Each block holds one binder with its values, some of them ahead of it. No end group written: not given here.
Experiments:
[1] = target: BRAF in colorectal cancer specimens with V600E mutation status: negative (human) (UniProt P15056); assay: IHC, FLEX++ Dako OMNIS, CRC block 7 BRAF-, V600E mutation status negative
[2] = target: BRAF in colorectal cancer specimens with V600E mutation status: negative (human) (UniProt P15056); assay: IHC, FLEX++ Dako OMNIS, CRC block 9 BRAF-, V600E mutation status negative
[3] = target: BRAF in colorectal cancer specimens with V600E mutation status: negative (human) (UniProt P15056); assay: IHC, FLEX++ Dako OMNIS, CRC block 8 BRAF-, V600E mutation status negative
[4] = target: BRAF in colorectal cancer specimens with V600E mutation status: negative (human) (UniProt P15056); assay: IHC, FLEX++ Dako OMNIS, CRC block BRAF- (slide 52), V600E mutation status negative
[5] = target: BRAF in colorectal cancer specimens with V600E mutation status: negative (human) (UniProt P15056); assay: IHC, FLEX++ Dako OMNIS, CRC block BRAF- (slide 51), V600E mutation status negative; design: scale not given here
[6] = target: BRAF in colorectal cancer specimens with V600E mutation status: negative (human) (UniProt P15056); assay: IHC, FLEX++ Dako OMNIS, CRC block 6 BRAF-, V600E mutation status negative
[7] = target: T1, BRAF V600E peptide (biotinylated synthetic peptide including the amino acids of and surrounding the BRAF … (also: biotinylated (position not given here))); assay: BLI
T1 peptide: GLATEKSRWSG

[8] = target: BRAF in colorectal cancer specimens with V600E mutation status: negative (human) (UniProt P15056); assay: IHC, FLEX++ Dako OMNIS, CRC block 10 BRAF-, V600E mutation status negative (clinical status Equivocal/Negative)

Tumor cells staining intensity [1]: 0.125
Tumor cells staining intensity [2]: 0.125
Tumor cells staining intensity [3]: 0
Tumor cells staining intensity [4]: 0.125
Tumor cells staining intensity [5]: 0.125
Tumor cells staining intensity [6]: 0.125
Kd [7]: 5.05 pM
Tumor cells staining intensity [8]: 0.25
B1: chimeric BRAF V600E antibody (mouse variable domains, rabbit IgG heavy chain and rabbit kappa1 light chain constant domains; heavy chain SEQ ID NO:2 and light … (antibody, V domains shown)
VH: QAYLQQSGAELVRPGASVKMSCKASGYTFTSYNMHWIKQTPRQGLEWIGAIYPGNGDTSYNQKFKGKATLTVDRSSNTAYMQLSSLTSEDSAVYFCARDGISPWGQGTLVTVSS
VL: DIKMTQSPSSMYASLGERVTITCKASQDINRYLSWFQQKPGKSPKTLIYRANRVLDGVPSRFSGSGSGQDYSLTISSLESEDMGIYYCLHYDEYPYTYGGGTKLEIKG

Kd [7]: 4.86 pM
B2: recombinant mouse anti-human BRAF V600E antibody (mouse IgG2a heavy chain, mouse kappa1 light chain) (antibody, V domains shown)
VH: B1 VH
VL: DIKMTQSPSSMYASLGERVTITCKASQDINRYLSWFQQKPGKSPKTLIYRANRVLDGVPSRFSGSGSGQDYSLTISSLESEDMGIYYCLHYDEYPYTYGGGTKLEIK
